Test [1] concerns the target TAMRA-labeled benzylated H3K9 peptide. The experiment in a line: fluorescence polarisation. (In general: Polarisation of emitted light reports the rotation of a fluorescent probe.)
The target of test [2] is TAMRA-labeled H3K9me3 peptide. Briefly: fluorescence polarisation.

As a reminder, the Kd is a measure of binding affinity in units of concentration. A low value points to higher affinity. The substance “CBX1 chromodomain F50A (from UniProt P83916 20-73) (domain or fragment)” registered a Kd in test [1] of 18.5 µM.
Consider “CBX3-F44G mutant (from UniProt Q13185 1-183) (natural protein)”, for which the Kd is 49 µM in test [1] and > 1000 µM in test [2].
Take “Y26F/F50G-CBX1 chromodomain (from UniProt P83916 22-73) (domain or fragment)”: the Kd is 5.5 µM in test [1], 80 µM in test [2] and > 300 µM with H3K9me2 peptide.
Consider “wild-type CBX3 (from UniProt Q13185 1-183) (natural protein)”, for which the Kd in test [1] is > 1000 µM.
